Target: the molecule itself
Assay: native ESI FT-ICR mass spectrometry, 40 uM in 10 mM ammonium acetate (self-association)
Description: The mass spectrometric experiments were performed with a 12T solariX XR mass spectrometer (Bruker Daltonics, Billerica, Mass., USA), equipped with an Apollo II ion funnel electrospray source. Before a mass spectrometric analysis, the protein sample was exchanged into an ESI-MS compatible ammonium acetate buffer (10 mM, pH 6.9) by using disposable PD-10 desalting columns (GE Healthcare). For mass spectrometric measurements in denaturing solution conditions, protein sample was diluted to 0.2 μM with acetonitrile/water/acetic acid solution. The protein solution was directly infused into the ion source by a syringe pump with a flow rate of […]. The temperature of the drying gas was 200° C. and the pressure of the nebulizing gas was 1.0 bar. Mass spectra were acquired in the positive ion mode over the m/z range of 800-3000 with 1-Mword time-domain transients and 0.05 sec ion accumulation. […] Desalted protein samples were usually measured at a concentration of 40 μM in 10 mM ammonium acetate buffer. Typically, 100 co-added 256-kword time-domain transients were recorded and processed to 512-kword data prior to fast Fourier transform and frequency to mass conversion. The wild-type Equ c 1 allergen and the Equ c 1 mutants were measured using the same instrumental parameters, in order to avoid any bias between the protein samples. […]

B1: recombinant wild-type Equ c 1 allergen (other)
chain: QQEENSDVAIRNFDISKISGEWYSIFLASDVKEKIEENGSMRVFVDVIRALDNSSLYAEYQTKVNGECTEFPMVFDKTEEDGVYSLNYDGYNVFRISEFENDEHIILYLVNFDKDRPFQLFEFYAREPDVSPEIKEEFVKIVQKRGIVKENIIDLTKIDRCFQLRGNGVAQA
notes: Reported to exist mainly as a dimer at 40 uM; also called rEqu c 1 wt; wt rEqu c 1
Does B1 bind?
Result: binds

Reference: patent US20200345839A1 (DESENTUM, published 2020)
